Measured values published in US20220259289A1 (Janssen / Centocor, published 2022).
Residue numbers refer to the chain shown, from its start.

B1: ISOP193AR9P1F4 (designed binder, not shown: small tags and cut ends)
chain: LPAPKNLVVSRVTEDSARLSWLEQEQFVNHFDSFLIQYQESEKVGEAIVLTVPGSERSYDLTGLKPGTEYTVSIYGVQYVDGFFKSNPLSAIFTT
B2: ISOP193BR9P1G11 (designed binder, not shown: small tags and cut ends)
chain: LPAPKNLVVSRVTEDSARLSWAGHYRKIRNFDSFLIQYQESEKVGEAIVLTVPGSERSYDLTGLKPGTEYTVSIYGVKFPYYYATADSNPLSAIFTT
B3: ISOP193BR9P1G2 (designed binder, not shown: small tags and cut ends)
chain: B2 chain with K78A, F79E, P80H, Y81W, A86Q
B4: ISOP193BR9P1E6 (designed binder, not shown: small tags and cut ends)
chain: LPAPKNLVVSRVTEDSARLSWGAITALFDSFLIQYQESEKVGEAIVLTVPGSERSYDLTGLKPGTEYTVSIYGVKFPYYYATADSNPLSAIFTT
B5: ISOP120FR5P1D7 (designed binder, not shown: small tags and cut ends)
chain: LPAPKNLVVSRVTEDSARLSWTAPDAAFDSFIIRYLEDISYGEAIVLTVPGSERSYDLTGLKPGTEYHVGIEGVKGGNVSWPLSAIFTT
B6: ISOP120FR5P1F8 (designed binder, not shown: small tags and cut ends)
chain: B5 chain
B7: ISOP193AR9P1A6 (designed binder, not shown: small tags and cut ends)
chain: LPAPKNLVVSRVTEDSARLSWKFGEVAFDSFLIQYQESEKVGEAIVLTVPGSERSYDLTGLKPGTEYTVSIYGVGRHYTVYDSNPLSAIFTT
B8: ISOP193AR9P1C10 (designed binder, not shown: small tags and cut ends)
chain: B7 chain with K22P, F23N, G24H, E25I, V26S, A27I, H77F, Y81F
B9: ISOP193AR9P1E6 (designed binder, not shown: small tags and cut ends)
chain: B7 chain with G24H, E25S, V26P, A27T, F90V
B10: ISOP193ER9P1A10 (designed binder, not shown: small tags and cut ends)
chain: LPAPKNLVVSRVTEDSARLSWTAPDAAFDSFDIYYFEHPVGGEAIVLTVPGSERSYDLTGLKPGTEYLVTIYGVKGGHFSGPLSAIFTT
B11: ISOP193ER9P1G5 (designed binder, not shown: small tags and cut ends)
chain: B10 chain with H78Y, F79L, G81M
B12: ISOP193FR9P1G2 (designed binder, not shown: small tags and cut ends)
chain: B10 chain with D32T, H38N, P39E, V40N, G64D, F79W, G81R
B13: ISOP193ER9P1B4 (designed binder, not shown: small tags and cut ends)
chain: B10 chain with R11H, H78Y, F79L, G81M
B14: ISOP193ER9P1G4 (designed binder, not shown: small tags and cut ends)
chain: B10 chain with H78N, G81F
B15: ISOP193ER9P1D7 (designed binder, not shown: small tags and cut ends)
chain: B10 chain with F36G, P39W, V40K, G41L, H78M, F79S, G81N
B16: ISOP193HR9P1A10 (designed binder, not shown: small tags and cut ends)
chain: B10 chain with F36L, H38P, P39W, V40G, L68W, G76V, G77C, H78L, F79G, G81N
B17: ISOP193FR9P1A11 (designed binder, not shown: small tags and cut ends)
chain: B10 chain with D32A, Y34Q, F36W, H38G, P39W, V40E, G41W, F79W, G81R
B18: ISOP193ER9P1F9 (designed binder, not shown: small tags and cut ends)
chain: B10 chain with D32H, F36G, P39Y, V40N, G41L, H78F, F79W, G81T
B19: ISOP193FR9P1G10 (designed binder, not shown: small tags and cut ends)
chain: B10 chain with D32T, H38N, P39E, V40N, F79W, G81R
B20: ISOP193AR9P1G8 (designed binder, not shown: small tags and cut ends)
chain: LPAPKNLVVSRVTEDSARLSWHATFGDPFDSFLIQYQESEKVGEAIVLTVPGSERSYDLTGLKPGTEYTVSIYGVGRHYTVYDSNPLSAIFTT
B21: ISOP193BR9P1H3 (designed binder, not shown: small tags and cut ends)
chain: LPAPKNLVVSRVTEDSARLSWNRLDSEWVAFDSFLIQYQESEKVGEAIVLTVPGSERSYDLTGLKPGTEYTVSIYGVVFRPWLAYNSNPLSAIFTT
B22: ISOP193BR9P1B12 (designed binder, not shown: small tags and cut ends)
chain: LPAPKNLVVSRVTEDSARLSWPDESRPVRFDSFLIQYQESEKVGEAIVLTVPGSERSYDLTGLKPGTEYTVSIYGVLRPWIYATNDSNPLSAIFTT
B23: ISOP193BR9P1H2 (designed binder, not shown: small tags and cut ends)
chain: B22 chain with L77H, R78T, P79R, W80D, I81W, Y82T, T84W, D86A
B24: ISOP193BR9P1H6 (designed binder, not shown: small tags and cut ends)
chain: B22 chain with L77V, R78G, P79Q, I81K, N85A
B25: ISOP193BR9P1G9 (designed binder, not shown: small tags and cut ends)
chain: LPAPKNLVVSRVTEDSARLSWKQVTVAPEFDSFLIQYQESEKVGEAIVLTVPGSERSYDLTGLKPGTEYTVSIYGVKFPYYYATADSNPLSAIFTT
B26: ISOP193BR9P1G3 (designed binder, not shown: small tags and cut ends)
chain: LPAPKNLVVSRVTEDSARLSWAQSNQQFDSFLIQYQESEKVGEAIVLTVPGSERSYDLTGLKPGTEYTVSIYGVVWQNWVAYNSNPLSAIFTT
B27: ISOP193AR9P1B12 (designed binder, not shown: small tags and cut ends)
chain: LPAPKNLVVSRVTEDSARLSWTNEQITKYGFDSFLIQYQESEKVGEAIVLTVPGSERSYDLTGLKPGTEYTVSIYGVGAPYTVYDSNPLSAIFTT
B28: ISOP193AR9P1H8 (designed binder, not shown: small tags and cut ends)
chain: B27 chain with A79R, P80F, Y84F
B29: ISOP193AR9P1G5 (designed binder, not shown: small tags and cut ends)
chain: LPAPKNLVVSRVTEDSARLSWRISDRLPLFDSFLIQYQESEKVGEAIVLTVPGSERSYDLTGLKPGTEYTVSIYGVGRHYTVYDSNPLSAIFTT
B30: ISOP193AR9P1A11 (designed binder, not shown: small tags and cut ends)
chain: LPAPKNLVVSRVTEDSARLSWALSSVHAYFDSFLIQYQESEKVGEAIVLTVPGSERSYDLTGLKPGTEYTVSIYGVQYVDGFFKSNPLSAIFTT
B31: ISOP193BR9P1G6 (designed binder, not shown: small tags and cut ends)
chain: LPAPKNLVVSRVTEDSARLSWDDQFEDWFDSFLIQYQESEQVGEAIVLTVPGSERSYDLTGLKPGTEYTVSIYGVHTRDWTAWNASNPLSAIFTT

Legend:
[1] = target: unrelated Fc-fused recombinant protein; assay: ELISA, negative control Fc protein
[2] = target: T1, human serum albumin (human, UniProt P02768 25-609); assay: ELISA, negative control HSA
T1 construct: Negative control of the ELISA; also called HSA
T1 sequence (P02768 25-609 limits assumed): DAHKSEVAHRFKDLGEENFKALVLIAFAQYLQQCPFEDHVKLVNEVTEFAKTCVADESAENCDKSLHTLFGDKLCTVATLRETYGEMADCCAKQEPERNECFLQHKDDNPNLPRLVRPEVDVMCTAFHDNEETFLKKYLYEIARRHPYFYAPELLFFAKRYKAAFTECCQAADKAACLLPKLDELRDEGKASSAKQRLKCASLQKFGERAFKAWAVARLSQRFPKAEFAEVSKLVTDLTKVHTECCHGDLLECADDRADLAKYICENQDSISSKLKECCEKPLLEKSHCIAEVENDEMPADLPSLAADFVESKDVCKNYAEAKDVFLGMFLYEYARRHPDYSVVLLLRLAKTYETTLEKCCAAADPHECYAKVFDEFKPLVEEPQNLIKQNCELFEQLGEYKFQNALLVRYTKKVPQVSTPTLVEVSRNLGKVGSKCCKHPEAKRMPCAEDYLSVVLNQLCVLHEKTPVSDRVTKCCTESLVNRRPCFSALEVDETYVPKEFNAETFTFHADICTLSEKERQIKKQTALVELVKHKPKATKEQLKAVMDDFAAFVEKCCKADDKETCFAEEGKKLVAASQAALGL
Description: (§1) Streptavidin-coated Maxisorp plates (Nunc catalog 436110) were blocked for 1 h in Starting Block T20 (Pierce) and then coated with biotinylated CD137 (using same antigen as in panning) or negative controls (an unrelated Fc-fused recombinant protein and human serum albumin) for 1 h. Plates were rinsed with TBST and diluted lysate was applied to plates for 1 h. Following additional rinses, wells were treated with HRP-conjugated anti-Centyrin antibody (PAB25) for 1 h and then assayed with POD (Roche catalog 11582950001).

[3] = target: T2, recombinant biotinylated CD137 protein (Fc-fusion protein, R&D Systems 838-4B) (human, UniProt Q07011 24-186, biotinylated, sites not stated); assay: ELISA, lysate on biotinylated CD137-Fc
T2 construct: Bought Fc fusion; also called CD137-Fc
Description: as §1

[4] = target: unrelated Fc-fused recombinant protein (negative control); assay: ELISA, bacterial lysate on plate-bound antigen, luminescence

Binder | ELISA Fc Control (RLU) [1] [RLU] | ELISA HSA (RLU) [2] [RLU] | ELISA CD137 (RLU) [3] [RLU] | ELISA Fc Control (RLU) [4] [RLU]
B1 | 1520 | 720 | 3.84e+06 | –
B2 | 56900 | 9600 | 4.99e+06 | –
B3 | 15900 | 2160 | 6.15e+06 | –
B4 | 2560 | 560 | 4.63e+06 | –
B5 | – | – | – | 400
B6 | – | – | – | 240
B7 | 960 | 480 | 6.74e+06 | –
B8 | 3520 | 960 | 7.14e+06 | –
B9 | 1200 | 720 | 4.18e+06 | –
B10 | 1120 | 240 | 1.49e+07 | –
B11 | 1440 | – | – | –
B12 | 2560 | 880 | 7.86e+06 | –
B13 | 1600 | 320 | 1.61e+07 | –
B14 | 1440 | 320 | 1.38e+07 | –
B15 | 1680 | 400 | 1.1e+07 | –
B16 | 5680 | 1520 | 1.27e+07 | –

Binder | ELISA Fc Control (RLU) [1] [RLU] | ELISA HSA (RLU) [2] [RLU] | ELISA CD137 (RLU) [3] [RLU] | ELISA Fc Control (RLU) [4] [RLU]
B17 | 3520 | 880 | 5.78e+06 | –
B18 | 1840 | 400 | 1.5e+07 | –
B19 | 2480 | 880 | 8.91e+06 | –
B20 | 1440 | 720 | 4.26e+06 | –
B21 | 2080 | 1360 | 5.26e+06 | –
B22 | 14000 | 2880 | 6.55e+06 | –
B23 | 11800 | 3280 | 3.5e+06 | –
B24 | 8320 | 2880 | 8.86e+06 | –
B25 | 1200 | 720 | 3.73e+06 | –
B26 | 1360 | 640 | 4.71e+06 | –
B27 | 2240 | 1440 | 2.76e+06 | –
B28 | 3040 | 1040 | 3.72e+06 | –
B29 | 1120 | 720 | 4.02e+06 | –
B30 | 1440 | 320 | 8.66e+06 | –
B31 | 2640 | 960 | 8.09e+06 | –
